Literature values as cited in US20250108009A1, “METHOD FOR SYNTHESIZING HYBRID NANOPARTICLES COMPRISING APOLIPOPROTEINS” (MEPSGEN CO., LTD., priority 2022, published 2025).

Conditions: Bekard et al. 2011

insulin
shear rate at which structural changes and aggregates are formed: 200 s⁻¹
shear stress at which structural changes and aggregates are formed: 1000 dyne/cm^2
